The results in this text go back to PMC11982451 (The Journal of Biological Chemistry, 2025).

The target of this test is T1, 2CARD domain of human RIG-I, residues 1-200, recombinant (human, UniProt O95786 1-200).
T1 sequence (looked up): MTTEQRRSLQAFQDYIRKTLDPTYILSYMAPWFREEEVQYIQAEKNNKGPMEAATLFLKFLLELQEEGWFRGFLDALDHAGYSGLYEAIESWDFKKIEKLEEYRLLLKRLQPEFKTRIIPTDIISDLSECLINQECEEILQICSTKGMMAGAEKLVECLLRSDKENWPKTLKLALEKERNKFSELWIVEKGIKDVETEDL
Kind of test: NMR titration.

B1: PRYSPRY domain (PSpry) of human TRIM25, residues 433-630, recombinant (domain or fragment, UniProt Q14258 433-630, looked up)
chain: STSLKAKVLETFLAKSRPELLEYYIKVILDYNTAHNKVALSECYTVASVAEMPQNYRPHPQRFTYCSQVLGLHCYKKGIHYWEVELQKNNFCGVGICYGSMNRQGPESRLGRNSASWCVEWFNTKISAWHNNVEKTLPSTKATRVGVLLNCDHGFVIFFAVADKVHLMYKFRVDFTEALYPAFWVFSAGATLSICSPK
B1: the binding result is on record as “binds”.
